Measured values: US20210214414A1 (Pfizer, published 2021)

Key:
[1] = molecular target: T1, Human SLIT1-N (human, UniProt O75093 34-1127, limits assumed); assay: HTRF competition: d2-labelled human SLIT1-N binding to human ROBO2 on HEK293 cells; geometric mean, n=3
T1 construct: domain: SLIT1-N; d2-labelled in the HTRF assay
T1 sequence (looked up): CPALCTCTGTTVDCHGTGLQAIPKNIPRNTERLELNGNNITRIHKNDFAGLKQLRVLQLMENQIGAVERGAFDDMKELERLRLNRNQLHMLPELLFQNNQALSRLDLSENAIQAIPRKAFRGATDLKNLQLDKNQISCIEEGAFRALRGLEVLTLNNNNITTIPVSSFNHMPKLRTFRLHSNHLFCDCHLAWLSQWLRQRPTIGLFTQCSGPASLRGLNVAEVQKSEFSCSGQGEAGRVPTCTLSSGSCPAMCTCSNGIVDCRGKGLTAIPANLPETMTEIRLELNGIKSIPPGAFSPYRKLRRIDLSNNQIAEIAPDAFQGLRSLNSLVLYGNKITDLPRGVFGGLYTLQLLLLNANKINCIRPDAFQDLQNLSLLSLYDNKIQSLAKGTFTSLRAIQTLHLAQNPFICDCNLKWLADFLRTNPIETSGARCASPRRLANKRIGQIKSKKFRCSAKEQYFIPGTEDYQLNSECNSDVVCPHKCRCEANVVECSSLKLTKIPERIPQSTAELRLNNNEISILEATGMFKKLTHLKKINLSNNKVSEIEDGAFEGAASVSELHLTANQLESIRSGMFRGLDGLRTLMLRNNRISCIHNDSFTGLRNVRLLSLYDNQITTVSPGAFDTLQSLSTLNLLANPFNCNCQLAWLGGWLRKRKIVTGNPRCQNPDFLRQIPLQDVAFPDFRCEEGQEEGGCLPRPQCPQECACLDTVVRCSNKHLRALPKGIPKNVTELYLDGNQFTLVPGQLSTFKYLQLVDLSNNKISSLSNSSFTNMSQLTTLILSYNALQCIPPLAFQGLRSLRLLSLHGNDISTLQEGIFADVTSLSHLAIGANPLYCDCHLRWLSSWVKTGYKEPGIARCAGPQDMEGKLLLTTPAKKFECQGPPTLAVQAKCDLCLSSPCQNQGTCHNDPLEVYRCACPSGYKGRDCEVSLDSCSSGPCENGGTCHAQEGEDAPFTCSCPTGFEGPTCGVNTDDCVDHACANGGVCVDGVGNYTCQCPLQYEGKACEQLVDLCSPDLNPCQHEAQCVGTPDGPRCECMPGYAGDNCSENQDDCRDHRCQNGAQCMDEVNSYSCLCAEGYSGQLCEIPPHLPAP
Protocol: (§1) After incubation, fluorescence at 665 nm and 620 nm was measured on an Envision multilabel plate reader. The HTRF Ratio was calculated as follows: fluorescence at 665 nm/fluorescence at 620 nm×10,000. […] The IC₅₀ for each SLITx-N was determined using an 11-point, 4-fold dilution series with a top concentration of 4000 nM.

[2] = molecular target: T2, Rat SLIT3-N (rat, UniProt O88280 34-1119, limits assumed); assay: HTRF competition: d2-labelled rat SLIT3-N binding to human ROBO2 on HEK293 cells; geometric mean, n=3
T2 construct: domain: SLIT3-N; d2-labelled in the HTRF assay
T2 sequence (looked up): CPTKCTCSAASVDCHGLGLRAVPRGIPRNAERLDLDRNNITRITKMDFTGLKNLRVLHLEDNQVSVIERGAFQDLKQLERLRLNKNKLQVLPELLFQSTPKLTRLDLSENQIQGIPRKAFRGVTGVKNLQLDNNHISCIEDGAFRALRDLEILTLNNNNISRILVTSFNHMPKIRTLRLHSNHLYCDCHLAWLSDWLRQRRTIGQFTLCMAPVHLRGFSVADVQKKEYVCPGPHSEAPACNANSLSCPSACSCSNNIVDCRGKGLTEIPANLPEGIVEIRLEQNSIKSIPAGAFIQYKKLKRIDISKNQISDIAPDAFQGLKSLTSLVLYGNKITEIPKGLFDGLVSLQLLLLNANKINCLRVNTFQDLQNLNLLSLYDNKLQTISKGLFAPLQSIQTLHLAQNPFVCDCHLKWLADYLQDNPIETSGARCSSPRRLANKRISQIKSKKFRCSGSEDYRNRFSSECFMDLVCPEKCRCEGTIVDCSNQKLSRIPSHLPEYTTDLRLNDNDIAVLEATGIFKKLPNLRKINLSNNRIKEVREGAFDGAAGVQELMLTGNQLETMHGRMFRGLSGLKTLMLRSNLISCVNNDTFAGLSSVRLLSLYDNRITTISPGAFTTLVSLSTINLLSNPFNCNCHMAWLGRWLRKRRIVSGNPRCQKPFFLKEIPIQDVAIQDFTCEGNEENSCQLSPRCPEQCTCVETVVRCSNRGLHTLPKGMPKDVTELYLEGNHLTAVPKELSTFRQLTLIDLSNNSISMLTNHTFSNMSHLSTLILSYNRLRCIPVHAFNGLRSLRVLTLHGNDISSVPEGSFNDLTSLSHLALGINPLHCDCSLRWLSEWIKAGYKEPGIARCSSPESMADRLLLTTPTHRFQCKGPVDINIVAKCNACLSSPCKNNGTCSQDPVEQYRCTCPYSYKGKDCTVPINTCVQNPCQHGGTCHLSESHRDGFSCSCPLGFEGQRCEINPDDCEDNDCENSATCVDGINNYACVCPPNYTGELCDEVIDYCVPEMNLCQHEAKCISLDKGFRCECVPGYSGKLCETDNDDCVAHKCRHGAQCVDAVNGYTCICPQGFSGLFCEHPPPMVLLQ
Protocol: as §1

IC50 [1]: 5.9 nM | IC50 [2]: 3 nM
B1: ROBO2-Fc 2.2 (Fc fusion)
chain: SRLRQEDFPPRIVEHPSDVIVSKGEPTTLNCKAEGRPTPTIEWYKDGERVETDKDDPRSHRMLLPSGSLFFLRIVHGRRSKPDEGSYVCVARNYLGEAVSRNASLEVALLRDDFRQNPTDVVVAAGEPAILECQPPRGHPEPTIYWKKDKVRIDDKEERISIRGGKLMISNTRKSDAGMYTCVGTNMVGERDSDPAELTVFERGGSGGSEPKSSDKTHTCPPCPAPEAAGAPSVFLFPPKPKDTLMISRTPEVTCVVVDVSHEDPEVKFNWYVDGVEVHNAKTKPREEQYNSTYRVVSVLTVLHQDWLNGKEYKCKVSNKALPAPIEKTISKAKGQPREPQVYTLPPSREEMTKNQVSLTCLVKGFYPSDIAVEWESNGQPENNYKTTPPVLDSDGSFFLYSKLTVDKSRWQQGNVFSCSVMHEALHNHYTQKSLSLSPG
notes: Labelled with Alexa Fluor 647 in the flow cytometry assay; also called ROBO-Fc 2.2; ROBO2-Fc 2.2-AF647
